The results in this text go back to paper PMC6013450, “A convenient protocol for generating giant unilamellar vesicles containing SNARE proteins using electroformation” (Scientific Reports, 2018).

This assay deals with T1, syntaxin-1A (183–288) (Rattus norvegicus, UniProt P32851 183-288).
T1 construct: syntaxin-1A, Rattus norvegicus, residues 183-288, contains the transmembrane region; source: E. coli BL21 (DE3), purified (Ni-NTA, ion exchange MonoQ, buffer with 1% CHAPS)
Briefly: ion exchange chromatography of the assembled complex; monomers mixed overnight at 4 °C; complex purified on a MonoQ column in a buffer containing CHAPS. Particulars: both partners purified.

T1 sequence (P32851 183-288): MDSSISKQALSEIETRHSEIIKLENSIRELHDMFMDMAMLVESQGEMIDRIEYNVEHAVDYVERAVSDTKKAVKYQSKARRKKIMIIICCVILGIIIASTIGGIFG

B1: synaptobrevin-2 fragment (49–96) (domain or fragment, Rattus norvegicus, UniProt P63045 49-96, looked up)
chain: NVDKVLERDQKLSELDDRADALQAGASQFETSAAKLKRKYWWKNLKMM
notes: synaptobrevin-2, Rattus norvegicus, residues 49-96; also called synaptobrevin fragment 49–96; source: E. coli BL21 (DE3), purified (Ni-NTA, ion exchange MonoS)
As to B1, the binding result is “binds”.
